The results in this text go back to patent US20090175872A1, “Treatment of Conditions Involving Demyelination” (BIOGEN Idec MA Inc., priority 2005, published 2009).

The test system of one assay is A2B5+ oligodendrocytes. Description: Differentiation of A2B5+ oligodendrocytes treated with Sp35-Fc (O4 staining). It counts as cell-based, rat. The note with it: increasing concentrations versus control-Fc, 48 h, FIG. 8. As to the method: Enriched populations of oligodendrocytes were grown from female Long Evans P2 rats as described by Conn, Meth. Neurosci. 2:1-4 (Academic Press; 1990) with modifications as follows. Briefly, the forebrain was dissected and placed in Hank's buffered salt solution (IBSS; Invitrogen). The tissue was cut into 1-mm fragments and was incubated at 37° C. for 15 min in 0.01% trypsin and 10 μg/ml DNase. Dissociated cells were plated on poly-L-lysine-coated T75 tissue culture flasks and were grown at 37° C. for 10 d in DMEM medium with 20% fetal calf serum (Invitrogen). Oligodendrocyte precursors (A2B5^+) were collected by shaking the flask overnight at 200 rpm at 37° C., resulting in a 95% pure population. Cultures were maintained in high-glucose Dulbecco's modified Eagle's medium (DMEM with FGF/PDGF (10 ng/ml; Peprotech) for 1 week. Removal of FGF/PDGF allowed A2B5+ cells to differentiate into O4^+ premyelinating oligodendrocytes after 3-7 d, and to differentiate into O4^+ and MBP^+ mature oligodendrocytes after 7-10 d. These differentiation states are readily apparent from changes in morphology: AB5^+ cells are bipolar in shape, O4^+ premyelinating oligodendrocytes have longer and more branched processes and MBP^+ mature oligodendrocytes contain myelin sheet structures between processes. […]

For the next assay, the system named is RhoA-GTP. Briefly: RhoA-GTP levels in oligodendrocyte lysates (western blotting). The note with it: versus corresponding control, FIG. 9A. It counts as cell-based, rat. An excerpt: A strong candidate signaling pathway that is implicated in the control of oligodendrocyte differentiation is the Rho family of GTPases. Rho GTPases regulate cellular morphology, and reduced RhoA-GTP amounts are required for oligodendrocyte differentiation. See Liang, X, et al., J. Neurosci. 24:7140-7149 (2004). To determine whether Sp35 signals through the RhoA pathway, RhoAGTP levels in cell lysates of oligodendrocytes treated with Sp35-Fc were compared with levels in the corresponding control via western blotting.
Background: A western blot detects proteins with antibodies after separation by electrophoresis.

Assay [1] deals with spinal cord injury in Long Evans rats. Description: Spinal cord injury (dorsal hemisection), intrathecal mini-osmotic pump. It counts as in vivo, rat.
Protocol: Spinal cord injury was induced in adult female Long Evans rats (190-210 g; Charles River). A dorsal hemisection was performed at T6/T7, completely interrupting the main dorsomedial and the minor dorsolateral corticospinal tract (CST) components. The cord was sterotaxically transected at a depth of 1.8 mm from the surface using a microscalpel. […] Postoperative care comprised analgesia (Buprenorphine/Buprenex, Reckitt Benckiset Healthcare Ltd., 0.05 mg/kg subcutaneously) every 8-12 hours for 3 days and antibiotic treatment (ampicillin, Bristol Myers Squibb, 100 mg/kg subcutaneously twice daily) for 7 days after surgery. Bladders were expressed manually twice a day for the duration of the study (4 weeks) or until return of function. On completion of the study, rats were anesthetized and trans-cardially perfused with heparinized saline followed by 4% paraformaldehyde (PFA). The spinal cords were removed, embedded in paraffin, and 10 μm sections were cut from for histological analysis.
To quantify apoptotic cell death after SCI, animals were euthanized 3 or 7 days after SCI and stained using anti-activated-Caspase-3 antibody (Cell Signaling Technologies) and TUNEL staining (Promega). The sections were also stained with anti-NeuN antibody (Chemicon) and anti-CC1 antibody (Calbiochem) to identify neurons and oligodendrocytes, respectively.
Another assay has as its system cuprizone-treated mice. Description: Cuprizone demyelination model, stereotactic injection into corpus callosum. The note with it: injected at 2, 2.5 and 3 weeks of cuprizone feeding. The class given is in vivo. The source says:
Adult wild-type C57B1/6 male mice were fed cuprizone (0.2% milled with ground mouse chow by weight) for 6 weeks to induce demyelination within the corpus callosum. Sp35-Fc was stereotactically injected into the demyelinating corpus callosum at 2, 2.5, and 3 weeks of cuprizone feeding. Control mice were stereotactically injected at the same intervals with sterilized media containing no Sp35-Fc. After 6 weeks of cuprizone feeding, the mice were returned to a normal diet for 2, 4 and 6 weeks (ground mouse chow only) to allow remyelination.
The cuprizone-treated mice were anesthetized with ketamine (80 mg/kg body weight) and xylazine (10 mg/kg body weight) and positioned in an immobilization apparatus designed for stereotactic surgery (David Kopf Instruments). The scalp was opened and the sterile compounds injected (1 μM in […] of HBSS) unilaterally into the acutely demyelinated corpus callosum of the wild-type recipient mice with a […] Hamilton syringe using stereotactic coordinates of 0.7 mm posterior and 0.3 mm lateral to bregrna at a depth of 1.7 mm (Messier et al., Pharmacol. Biochem. Behav. 63(2): 313-18 (1999)). Additionally, control recipient mice were stereotactically injected with HBSS containing no compounds. The opening in the skull was filled with Gelfoam, and the area was swabbed with penicillin and streptomycin (Gibco) and the wound was sutured. […]

For assay [2], the system named is co-cultures of dorsal root ganglion (DRG) neurons and oligodendrocytes. Briefly: Myelination in co-cultures of DRG neurons and oligodendrocytes. The class given is cell-based, rat. The protocol:
The role of Sp35 in myelination was examined in vitro by treating co-cultures of dorsal root ganglion (DRG) neurons and oligodendrocytes with Sp35-Fc and testing for myelination by immunohistochemistry and electron microscopy. For these studies, it was necessary to first generate primary cultures of DRG neurons and of oligodendrocytes.
Female Long Evans rat E14-E17 embryonic dorsal root ganglia were cultured as described by Plant et al., J. Neurosci. 22:6083-91 (2002). Dissected DRGs were plated on poly-L-lysine-coated cover slips (100 μg/ml) for 2 weeks in the presence of fluorodeoxyuridine for days 2-6 and days 8-11 in NLA medium containing 1×B27, 100 ng/ml NGF (Invitrogen).
A2B5^+ oligodendrocytes were prepared as described in Example 1, and were harvested by trypsinization.
For coculture studies, A2B5^+ oligodendrocytes were added to DRG neuron drop cultures in the presence or absence of 10 μg/ml Sp35-Fc. The culture medium (Neurobasal medium supplemented with B27 and 100 ng/ml NGF) was changed, and fresh Sp35-Fc was added to the cells every 3 d. To identify changes in myelination, 2-week-old cultures were stained by immunohistochemical staining (“IHC”) for neurofilaments with anti-βIII-tubulin antibody to identify axons, or anti-MBP antibody to identify oligodendrocytes., and 4-week-old cultures were subjected to SDS-PAGE followed by western blot analyses to quantify the MBP. In selected examples, cells were fixed for electron microscopy studies by adding 2.5% gluteraldehyde directly onto the cover slips. Myelinated axons in the 2-week-old cultures were quantified by counting the number of myelinated internode bundles that were derived from single MBP^+ oligodendrocytes. Samples were analyzed in duplicate. Error bars denote individual determinations. P values in all studies were determined using a one-way analysis of variance. […]
We performed experiments to address the relative contributions to the myelination process of Sp35 in DRG neurons as compared to oligodendrocytes. We infected DRG neurons, oligodendrocytes and co-cultures (prepared as described in Example 5) with the FL-Sp35 and DN-Sp35 lentiviral vectors described in Example 1 and performed immunohistochemical straining for myelinated MBP^+ cells after two weeks. A 2-fold increase in MBP levels in co-cultures where both cells express DN-Sp35 and a 2-fold decrease in MBP levels in co-cultures where both cells express FL-Sp35 was observed (FIG. 10G).

B1: Sp35-Fc: extra-cellular portion of human Sp35 (residues 1-532) fused to the hinge and Fc region of human IgG1 (protein)
chain: TGCPPRCECSAQDRAVLCHRKRFVAVPEGIPTETRLLDLGKNRIKTLNQDEFASFPHLEELELNENIVSAVEPGAFNNLFNLRTLGLRSNRLKLIPLGVFTGLSNLTKLDISENKIVILLDYMFQDLYNLKSLEVGDNDLVYISHRAFSGLNSLEQLTLEKCNLTSIPTEALSHLHGLIVLRLRHLNINAIRDYSFKRLYRLKVLEISHWPYLDTMTPNCLYGLNLTSLSITHCNLTAVPYLAVRHLVYLRFLNLSYNPISTIEGSMLHELLRLQEIQLVGGQLAVVEPYAFRGLNYLRVLNVSGNQLTTLEESVFHSVGNLETLILDSNPLACDCRLLWVFRRRWRLNFNRQQPTCATPEFVQGKEFKDFPDVLLPNYFTCRRARIRDRKAQQVFVDEGHTVQFVCRADGDPPPAILWLSPRKHLVSAKSNGRLTVFPDGTLEVRYAQVQDNGTYLCIAANAGGNDSMPAHLHVRSYSPDWPHQPNKTFAFISNQPGE
modifications: left off: a dimerising Fc or GST
notes: extra-cellular portion of human Sp35 (residues 1-532) fused to the hinge and Fc region of human IgG1
On to B1, for which the “differentiation of A2B5+ cells into O4+ cells” value in the assay with A2B5+ oligodendrocytes is reported as “promoted differentiation”. The “reduction in RhoA-GTP” value in the assay with RhoA-GTP is reported as “threefold reduction”. In assay [1] (3 days after SCI, 0.25 μl/h of 25 μM intrathecal), the “number of activated-Caspase-3-positive neurons and oligodendrocytes versus controls” value was “significantly smaller”. The “neuron and oligodendrocyte survival in tissue surrounding the lesion site versus controls” value in assay [1] (four weeks after SCI, anti-βIII-tubulin and anti-O4 staining) is “more neurons and oligodendrocytes survived”. In the assay with cuprizone-treated mice, the “axon myelination by IHC using anti-MBP protein antibody or luxol fast blue” value is “increased”. Moreover, the “mature oligodendrocyte survival (CC1 antibody staining)” value in the assay on cuprizone-treated mice (FIG. 12) is recorded as “increased mature oligodendrocyte survival”. In addition, the “internodes and nodes of Ranvier by electron microscopy” value in assay [2] (4-week co-cultures, FIG. 10C) is listed as “Multiple wellformed internodes were observed”. Further, in assay [2] (4-week-old treated co-cultures, anti-MBP antibody), the “expression of MBP (western blot)” value is on record as “increased”. Besides, in assay [2] (exogenously added), the “effect on myelination when both cell types overexpress DN-Sp35” value is on record as “slight effects” and the “effect on myelination when either cell type overexpresses DN-Sp35 alone” value is listed as “further enhanced myelination”. Further, the “effect on inhibition of myelination by overexpression of FL-Sp35” value in assay [2] (exogenously added, FL-Sp35 in either or both cell types) is “reversed the inhibition of myelination”. Further, in assay [2] (treatment for 2 weeks, dose-dependent, FIG. 10A), the “axonal myelination (MBP+ myelinated axons)” value is reported as “robust axonal myelination”.
